tested on: HIV-1IIIB; experiment: Selection of GSEs from HeLa cell library using productive infection of CEM-ss cells; type: cell-based
Experimental: Additionally, a normalized RFE library made from HeLa cells was transferred into CEM-ss cells and the neo resistant population was infected with TCID50 of 3000/10^6 cells of HIV-1IIIB. This RFE library was represented by 50×10^6 independent recombinant clones. Four and seven days after infection, a purified anti-CD4 monoclonal antibody, L77 (available from Becton Dickinson), was added at 5 Φg/mL to prevent syncytia formation. Syncytia formation is thought to be prevented by blocking the interaction between gp120 expressed on the surface of an infected cell and CD4 on the surface of an uninfected cell. […] At 10-12 days after infection, CD4^+, p24^− cell population representing uninfected cells were sorted. Genomic DNA from the CD4^+, p24^− cells was purified and used for PCR amplification of inserts with the vector-derived primers. The amplified mixture was digested with EcoRI and BamHI and cloned back into the retroviral vector. The selection was repeated for additional rounds.
The selection of GSEs from HeLa cell library using productive infection of CEM-ss cells isolated […] additional nucleic acid molecules which have substantial sequence identity with other cellular genes.
The selection of GSEs from a HeLa cell library using productive infection of CEM-ss cells isolated 21 additional nucleic acid molecules which have substantial sequence identity with other cellular genes. […] The complement of SEQ ID NO:25 is represented by SEQ ID NO:26. […] The complement of SEQ ID NO:27 is represented by SEQ ID NO:28. […] The complement of SEQ ID NO:29 is represented by SEQ ID NO:30. […] The complement of SEQ ID NO:31 is represented by SEQ ID NO:32. […] The complement of SEQ ID NO:33 is represented by SEQ ID NO:34. […] The complement of SEQ ID NO:35 is represented by SEQ ID NO:36. […] The complement of SEQ ID NO:37 is represented by SEQ ID NO:38. […] The complement of SEQ ID NO:39 is represented by SEQ ID NO:40. […] The complement of SEQ ID NO:41 is represented by SEQ ID NO:42. […] The complement of SEQ ID NO:43 is represented by SEQ ID NO:44. […] The complement of SEQ ID NO:45 is represented by SEQ ID NO:46. […] The complement of SEQ ID NO:47 is represented by SEQ ID NO:48. […] The complement of SEQ ID NO:49 is represented by SEQ ID NO:50. […] The complement of SEQ ID NO:51 is represented by SEQ ID NO:52. […] The complement of SEQ ID NO:53 is represented by SEQ ID NO:54. […] The complement of SEQ ID NO:55 is represented by SEQ ID NO:56. […] The complement of SEQ ID NO:57 is represented by SEQ ID NO:58. […] The complement of SEQ ID NO:59 is represented by SEQ ID NO:60. […] The complement of SEQ ID NO:61 is represented by SEQ ID NO:62. […] The complement of SEQ ID NO:77 is represented by SEQ ID NO:78. […] The complement of SEQ ID NO:87 is represented by SEQ ID NO:88. […] The complement of SEQ ID NO:99 is represented by SEQ ID NO:100. […] The complement of SEQ ID NO:101 is represented by SEQ ID NO:102. […] The complement of SEQ ID NO:103 is represented by SEQ ID NO:104. […] The complement of SEQ ID NO:105 is represented by SEQ ID NO: 106. […] The complement of SEQ ID NO:107 is represented by SEQ ID NO:108. […] The complement of SEQ ID NO:109 is represented by SEQ ID NO:110. […] The complement of SEQ ID NO:111 is represented by SEQ ID NO:112. […] The complement of SEQ ID NO:113 is represented by SEQ ID NO:114. […] The complement of SEQ ID NO:115 is represented by SEQ ID NO:116. […] The complement of SEQ ID NO:117 is represented by SEQ ID NO:118.

Molecule	HIV-suppressive activity of the GSE and active orientation
CF-527: GSE, SEQ ID NO:41; eukaryotic release factor 1 gene; acts through a peptide (nucleic acid, listed as Homo sapiens, chemistry not fully specified, eukaryotic release factor 1 gene; acts through a peptide) DNA: CGTTTAAGAATGGAAAAGCGACATAACTATGTTCGGAAAGTAGCAGAGACTGCTGTGCAGCTGTTTATTTCTGGGGACAAAGTGAATGTGGCTGGTCTAGTTTTAGCTGGATCCGCTC	a peptide from which interferes with HIV replication
CF-50: GSE, SEQ ID NO:39, sense; squalene synthetase gene (nucleic acid, listed as Homo sapiens, chemistry not fully specified, squalene synthetase gene) sense: AAGTGAAATGCAGGTGAGAAGAACCTAAACATGAAAGGAAAGGGTGCCTCATCCCAGCAACCTGTCCTTGTGGGTGATGATCACTGTGCTGCTTGTGGCTCATGGCAGAGCATTCAGTGCCAA	exhibits its HIV-suppressive activities in the sense orientation

tested on: HIV; experiment: Selection of GSEs from PBMC library using CEM-ss cells; type: cell-based
Experimental: A cell-derived random fragment library (RFL) was constructed using cDNA from peripheral blood mononuclear cells (PBMC). Four buffy coats were obtained from four healthy blood donors and PBMCs were purified by Ficoll gradient centrifugation followed by stimulation with PHA (1 μg/mL). Cells were removed at 5, 10, and 24 hours after the addition of PHA and total RNA was isolated by Trizol extraction. All time points from all donors were then pooled. Polyadenylated mRNA was purified from the total RNA by passages through an oligo-dT column. cDNA was synthesized from the polyadenylated RNA with random primers using the Gibco Superscript Choice system for cDNA Synthesis (Gibco BRL, Rockville, Md.). The cDNA was normalized using the PCR-Select cDNA Subtraction kit (Clontech, Palo Alto, Calif.) based on the suppression subtractive hybridization methods of Diatchenko et al. (1996, Proc. Natl. Acad. Sci. USA 93, 6025-6030, 1996). The primers used for the normalization were: […]
The normalized random fragments were digested with XhoI and Sse83871, purified on quick spin columns (available from Qiagen, Valencia, Calif.) and ligated into the SseI/XhoI site of a bicistronic retroviral vector, EMCVNgfrMPBIN. This vector was based on LXSNgfr as described in Dunn el al. (1999, Gene Therapy 6:130-137). Modifications included substitution of the Moloney murine leukemia virus LTR with the hybrid LTR described by Baum et al., 1995, (J. Virol. 69:7541-7547) and replacement of the SV40 promoter with encephalomyocarditis virus (EMCV) internal ribosomal entry site isolated from the plasmid, pCITE (available from Amersham, Arlington Heights, Ill.). The ligation mix was then transformed into competent cells. The total plasmid was purified from approximately 50 million clones.
The PBMC library was screened using the methods described above in Section 1F. A total of 14 GSEs were isolated using CEM-ss cells. […] The complement of SEQ ID NO:69 is represented by SEQ ID NO:70. CF-675 (SEQ ID NO:71) is another GSE that has substantial sequence identity with a gene encoding human translationally controlled tumor protein 1 (GenBank Accession No. HUMCH13C4A). The complement of SEQ ID NO:71 is represented by SEQ ID NO:72. CF-679 (SEQ ID NO:83) is another GSE that has substantial sequence identity with a gene encoding human translationally controlled tumor protein 1 (GenBank Accession No. HUMCH13C4A). The complement of SEQ ID NO:83 is represented by SEQ ID NO:84. […] The complement of SEQ ID NO:75 is represented by SEQ ID NO:76. […] The complement of SEQ ID NO:79 is represented by SEQ ID NO:80. […] The complement of SEQ ID NO:67 is represented by SEQ ID NO:68. […] The complement of SEQ ID NO:63 is represented by SEQ ID NO:64. CF-675 (SEQ ID NO:65) is another GSE that has substantial sequence identity with a gene encoding alpha enolase protein. The complement of SEQ ID NO:65 is represented by SEQ ID NO:66. […] The complement of SEQ ID NO:73 is represented by SEQ ID NO:74. […] The complement of SEQ ID NO:81 is represented by SEQ ID NO:82. […] The complement of SEQ ID NO:85 is represented by SEQ ID NO:86. […] The complement of SEQ ID NO:89 is represented by SEQ ID NO:90. […] The complement of SEQ ID NO:91 is represented by SEQ ID NO:92. […] The complement of SEQ ID NO:93 is represented by SEQ ID NO:94. Another member of the cluster is CF-686 (SEQ ID NO:95), also having substantial sequence identity with a gene encoding cell surface heparin binding protein (Liu et al., ibid.). The complement of SEQ ID NO:95 is represented by SEQ ID NO:96.

Molecule	HIV-suppressive activity of the GSE and active orientation
CF-693: GSE, SEQ ID NO:75, sense; NEF interacting protein gene (sense GATTCTCAGCTGGTAGCTGGTGTTGCATTCAAGAAGACTTTCTCTTACGCTGGGTT; listed as Homo sapiens)	interferes with HIV replication in a sense orientation
CF-674: GSE, SEQ ID NO:69, sense; human translationally controlled tumor protein 1 gene (nucleic acid, listed as Homo sapiens) sense: CTCTGTTCTTCAAGTTTCCCTTTGATTGATTTCATGTAATCTTTGATGTACTTCTTGTAGGCTTCTTTTGTGAAACTTGTTT	interferes with HIV replication in a sense orientation
CF-673: GSE, SEQ ID NO:73, antisense; BBC-1 gene (nucleic acid, listed as Homo sapiens) antisense: TCATCACTGAGGAAGAGAAGAATTTCAAAGCCTTCGCTAGTCTCCGTATGGCCCGTGCCAACGCCCGGCTCTTCGGCACACGGGCAAAA	interferes with HIV replication as an antisense molecule
CF-676: GSE, SEQ ID NO:63, antisense; alpha enolase gene (nucleic acid, listed as Homo sapiens) antisense: GTACAACCAGCTCCTCAGAATTGAAGAGGAGCTGGGCAGCAAGGCTAAGTTTGCCGGCAGGAACTTCAGAAACCCCTTGGCCAAGTAAGCTGTGGGCAGGCAAGCCCTTCGGTCACCTGTTGGCT	interferes with HIV replication as an antisense molecule
CF-660: GSE, SEQ ID NO:79, antisense; human hsp90 chaperone protein gene (nucleic acid, listed as Homo sapiens) antisense: GAGAGGGGGGATCTCATCAGGAACTGCAGCATTGGGTTCCTCTGCTGCCACTTCATCTTCATCAAT	interferes with HIV replication as an antisense molecule
CF-684: GSE, SEQ ID NO:91, sense; human tumorous imaginal disc protein gene (nucleic acid, listed as Homo sapiens) sense: AATCATTGTTTTTTCCTTTGTAAATGTTGATTCAGAAAAGGAAAGCACAGGCTAAGCAGTTGAAGGTTCCCCACCATTCAGTGAGAGCAG	interferes with HIV replication in a sense orientation
CF-685: GSE, SEQ ID NO:93, antisense; cell surface heparin binding protein gene (nucleic acid, listed as Homo sapiens) antisense: TCGGGAGCCGCGGCTTATGGTGCAGACATGGCCAAGTCCAAGAACCACACCACACACAACCAGTCCCGAAAATGGCACAGAAATGGTATCAAGAAACCCCGAT	interfere with HIV replication as an antisense molecule
CF-653: GSE, SEQ ID NO:67, antisense; MIP-1 alpha gene (nucleic acid, listed as Homo sapiens) antisense: CCCACATTCCGTCACCTGCTCAGAATCATGCAGGTCTCCACTGCTGCCCTTGCTGTCCTCCTCTGCACCATGGCTCTCTGCAACCAGTTCTCTGCATCACTTGCTGCTGACACG	interferes with HIV replication as an antisense molecule
